This is an account of results in patent US20240410901A1.

Changes are numbered by the printed parent chain. Numbers in names are those of the source.

For assay [1], the target named is actin filaments of D. melanogaster S2 cells (lamellipodial actin ring, patches, filopodia) (D. melanogaster). Put plainly: TIRF imaging of S2 cells before and after blue light.
The target is the same in assay [2]. Nature of the assay: TIRF imaging of a fixed S2 cell expressing mCherry-Lifeact stained with Alexa Fluor 488 phalloidin; panel a, upper cell.
Assay [3] has the same target. Nature of the assay: TIRF imaging of a fixed S2 cell expressing mCherry-Lifeact stained with Alexa Fluor 488 phalloidin; panel a, lower cell.
In assay [4] the target is F-actin (G-actin polymerized, filaments stabilized with phalloidin). Nature of the assay: cosedimentation with 0.5 µM phalloidin-stabilized F-actin, SDS-PAGE of the pellet, hyperbolic fit.
For assay [5], the target named is actin filaments of D. melanogaster S2 cells (lamellipodial actin ring, patches, filopodia) (D. melanogaster). Put plainly: TIRF imaging of a repeatedly excited S2 cell; actin labeling ratio over time, panel f, recovery after the 3rd excitation.
Assay [6] has the same target. Put plainly: TIRF imaging of a repeatedly excited S2 cell; actin labeling ratio over time, panel f, recovery after the 1st excitation (black exponential fit).
Assay [7] has the same target. Put plainly: TIRF image of the same S2 cell after blue-light excitation, panel b; outer and inner rings hand traced.
Assay [8] shares this target. Put plainly: TIRF imaging of an S2 cell expressing mCherry-LILAC, fixed under blue light and stained with Alexa Fluor 488 phalloidin; panel b, lower cell.
For assay [9] the target is unchanged. Nature of the assay: TIRF imaging of a live S2 cell; actin labeling ratio over time, panel B, recovery after the 4th blue-light excitation.
For assay [10] the target is unchanged. Nature of the assay: TIRF imaging of a live S2 cell; actin labeling ratio over time, panel B, recovery after the 2nd blue-light excitation.
Assay [11] shares this target. Nature of the assay: cell-based or functional assay.
The target is the same in assay [12]. Nature of the assay: TIRF image of an S2 cell before blue-light excitation, panel a; outer and inner rings hand traced.
The target is the same in assay [13]. Put plainly: TIRF imaging of a live S2 cell; actin labeling ratio over time, panel B, recovery after the 3rd blue-light excitation.
Assay [14] has the same target. Put plainly: TIRF imaging of a repeatedly excited S2 cell; actin labeling ratio over time, panel f, recovery after the 4th excitation.
For assay [15] the target is unchanged. Nature of the assay: TIRF imaging of a live S2 cell; actin labeling ratio over time, panel B, recovery after the 1st blue-light excitation (black exponential fit drawn on this one).
Assay [16] has the same target. Nature of the assay: TIRF imaging of an S2 cell expressing mCherry-LILAC, fixed under blue light and stained with Alexa Fluor 488 phalloidin; panel b, upper cell.
Assay [17] shares this target. Nature of the assay: TIRF imaging of a repeatedly excited S2 cell; actin labeling ratio over time, panel f, recovery after the 2nd excitation.
Assay [18] has the same target. Nature of the assay: TIRF images of an S2 cell before and after blue-light excitation, printed in panel b.

Take “mCherry-Lifeact expressed in Drosophila S2 cells (pMT-mCherry-Lifeact vector) (from UniProt Q08641 1-17)”: the switching ratio (fold change of the actin labeling ratio, post/pre-excitation) in [1] worked out at 1. Moreover, the r (Pearson's correlation coefficient with the phalloidin image) in assay [2] was 0.83; in [3], 0.89.

As usually defined, the Kd is the constant that tells how readily two partners part at equilibrium. High values mean weaker binding, low ones tighter binding. For the molecule “mCherry-Lifeact, expressed in E. coli and purified (6×His-mCherry-TEV-Lifeact from the pET21-mCherry-Lifeact vector) (from UniProt Q08641 1-17)”, the dissociation constant Kd in [4] stood at 3.9 µM.

B1: mCherry-LILAC expressed in Drosophila S2 cells (pMT vector) (designed binder, not shown: large carriers)
chain: GGSGGSGGSGEFLATTLERIEKNFVITDPRLPDNPIIFASDSFLQLTEYSREEILGRNCRFLQGPETDRATVRKIRDAIDNQTEVTVQLINYTKSGKKFWNLFHLQPMRDQKGDVQYFIGVQLDGTEHVRDAAEREAVMLAKKTAEEIDEAAMGVADLIKKFESISKEE
With B1, the τ (time constant of the decay of the actin labeling ratio after excitation) in [5] came out at 61 s; in assay [6], 71 s; in assay [9], 59 s; in [10], 73 s; in [13], 61 s; in assay [14] it was 59 s. In addition, the results for the τ (time constant of the decay of the actin labeling ratio after excitation) in assay [15] and in assay [17] were 71 s and 73 s, respectively. The switching ratio (fold change of the actin labeling ratio, post/pre-excitation) in assay [1] amounted to 1.6. Besides, the ALR (actin labeling ratio, intensity outer / intensity inner) in assay [7] is 0.79; in assay [12], 0.39. For the same molecule, the r (Pearson's correlation coefficient with the phalloidin image) in [8] was 0.62; in [16], 0.6. Also, the dark state recovery time constant, from actin labeling ratio traces in assay [11] was determined as 63 s. Moreover, the ASR (actin switching ratio, ALR post / ALR pre) in [18] is 2.02.

B2: mCherry-LILAC I539E expressed in Drosophila S2 cells (pMT vector) (designed binder, not shown: large carriers)
chain: B1 chain with I148E
For the molecule B2, in assay [1], the switching ratio (fold change of the actin labeling ratio, post/pre-excitation) turned out to be 1.

B3: mCherry-LILAC T406A/T407A expressed in Drosophila S2 cells (pMT vector) (designed binder, not shown: large carriers)
chain: B1 chain with T15A, T16A
In the case of B3, the dark state recovery time constant, from actin labeling ratio traces in [11] was determined as 50 s.

B4: mCherry-LILAC I539E, expressed in E. coli and purified (6×His-mCherry-TEV-LILAC with I539E, pET21) (designed binder, not shown: large carriers; small tags and cut ends)
chain: HHHHHHGEFLATTLERIEKNFVITDPRLPDNPIIFASDSFLQLTEYSREEILGRNCRFLQGPETDRATVRKIRDAIDNQTEVTVQLINYTKSGKKFWNLFHLQPMRDQKGDVQYFIGVQLDGTEHVRDAAEREAVMLAKKTAEEEDEAAMGVADLIKKFESISKEE
In turn, B4 came in with a Kd in [4] of 3.4 µM.
